The experiment deals with T1, Cdc53(267-851)/GST-Rbx1 complex expressed in bacteria, Q08273.
T1 chain: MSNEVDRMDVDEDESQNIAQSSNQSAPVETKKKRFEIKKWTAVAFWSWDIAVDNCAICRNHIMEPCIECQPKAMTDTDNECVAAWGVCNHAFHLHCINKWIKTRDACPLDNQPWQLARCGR
Kind of experiment: in vitro binding assay (MBP pull-down on amylose beads, Western blot quantification). The conditions noted are these: chain shown with the change, bacterial lysate expressing Cdc53(267-851)/Rbx1, normalized to Amido black signal of MBP tagged protein, read off a plot.

B1: (MBP)-Met30(1-186), P39014 M178E; I179E (protein)
chain: MRRERQRMMSFEDKDKDDLDNSNSNNSSEMTDTAMMPPLKRLLITGSSDDLAQGSSGKKKMTMATRSPSSSPDLATNDSGTRVQPLPEYNFTKFCYRHNPDIQFSPTHTACYKQDLKRTQEINANIAKLPLQEQSDIHHIISKYSNSNDKIRKLILDGILSTSCFPQLSYISSLVTHEEKIDFISI
Consider B1, for which the response (Cdc53/Amido Black) was 0.15 (Exp 1, parent: est. 3.1); 2.9 (Exp 2, parent: est. 7.3); 0.45 (Exp 3, parent: est. 4.6).
